# Key:
# [1] = molecular target: PD-L1 on K562/OKT3/PD-L1 artificial antigen presenting cells (UniProt Q9NZQ7); experiment: cell-based or functional assay
# [2] = molecular target: CD28 on Jurkat/IL2 reporter cells (human) (UniProt P10747); experiment: cell-based or functional assay
# Chain of PD-L1 on K562/OKT3/PD-L1 artificial antigen presenting cells (Q9NZQ7 19-290): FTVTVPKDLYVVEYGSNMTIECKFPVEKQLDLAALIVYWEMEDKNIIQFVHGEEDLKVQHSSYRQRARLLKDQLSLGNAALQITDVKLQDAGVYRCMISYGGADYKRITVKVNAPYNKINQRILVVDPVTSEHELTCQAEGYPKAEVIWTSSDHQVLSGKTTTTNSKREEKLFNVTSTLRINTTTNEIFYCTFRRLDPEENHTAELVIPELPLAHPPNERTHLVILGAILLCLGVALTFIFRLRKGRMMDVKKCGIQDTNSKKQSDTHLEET
Substance,"Fold Increase over WT CD80-IgV-Fc (RLU, Jurkat/IL2 + K562/OKT3/PD-L1 reporter assay, 50 nM) [1] [fold]","Relative Luciferase Units (RLU), Jurkat/IL2 + K562/OKT3/PD-L1 reporter assay, CD80-Fc Conc 50 nM [1] [RLU]","Fold Increase over WT CD80-IgV-Fc (RLU, Jurkat/IL2 + K562/OKT3/PD-L1 reporter assay, 50 nM) [2] [fold]","Relative Luciferase Units (RLU), Jurkat/IL2 + K562/OKT3/PD-L1 reporter assay, CD80-Fc Conc 50 nM [2] [RLU]"
CD80 V22D/E35D/M47L/L85Q IgV-Fc (inert) (Fc fusion),5.5,1140,5.5,1140
CD80 E35D/T41S/M47V/A71G/K89N IgV-Fc (inert) (Fc fusion),5,1020,5,1020
CD80 E35D/T41S/M43I/M47V/A71G IgV-Fc (inert) (Fc fusion),6.2,1270,6.2,1270
CD80 E35D/D46E/M47V/A71D IgV-Fc (inert) (Fc fusion),3.3,683,3.3,683
CD80 E35D/T41S/M47V/L97Q IgV-Fc (inert) (Fc fusion),2.9,594,2.9,594

# Other lines, results leading:
"Fold Increase over WT CD80-IgV-Fc (RLU, Jurkat/IL2 + K562/OKT3/PD-L1 reporter assay, 50 nM) [1] [fold]","Relative Luciferase Units (RLU), Jurkat/IL2 + K562/OKT3/PD-L1 reporter assay, CD80-Fc Conc 50 nM [1] [RLU]","Fold Increase over WT CD80-IgV-Fc (RLU, Jurkat/IL2 + K562/OKT3/PD-L1 reporter assay, 50 nM) [2] [fold]","Relative Luciferase Units (RLU), Jurkat/IL2 + K562/OKT3/PD-L1 reporter assay, CD80-Fc Conc 50 nM [2] [RLU]",Substance
7.5,1540,7.5,1540,CD80 V22D/E35D/M47L/L70M/L97Q IgV-Fc (inert) (Fc fusion)
7.1,1460,7.1,1460,CD80 E35D/D46V/M47L/V68M/L85Q/E88D IgV-Fc (inert) (Fc fusion)
8.4,1720,8.4,1720,CD80 E35D/Y53H/A71G/D90G/L97R IgV-Fc (inert) (Fc fusion)
7.3,1500,7.3,1500,CD80 I30V/E35D/M47V/A71G/A91V IgV-Fc (inert) (Fc fusion)
5.5,1120,5.5,1120,CD80 V22L/Q27H/E35D/M47I/A71G IgV-Fc (inert) (Fc fusion)
6.4,1320,6.4,1320,CD80 E35D/M47L/A71G/L85M/F92Y IgV-Fc (inert) (Fc fusion)
